Experimental data published in patent US6946258B2, “Rapid, immunochemical process for measuring thiopurine methyltransferase” (Biologix Diagnostics, LLC, priority 2002, dated 2005).
Values belong to the molecule of their own block, whether it stands above or below them.

Legend:
human TPMT = target: T1, human TPMT (Homo sapiens, UniProt P51580); conditions: Deininger et al., 1994, Table 1; cited from earlier work
T1 sequence (P51580 1-245): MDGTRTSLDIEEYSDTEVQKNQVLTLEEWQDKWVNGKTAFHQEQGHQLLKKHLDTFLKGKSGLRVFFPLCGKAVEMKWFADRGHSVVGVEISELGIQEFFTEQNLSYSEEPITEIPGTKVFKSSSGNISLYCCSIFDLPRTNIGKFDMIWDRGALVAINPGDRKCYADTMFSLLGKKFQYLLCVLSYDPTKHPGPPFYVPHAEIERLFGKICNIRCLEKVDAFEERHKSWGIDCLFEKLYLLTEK

hTPMT enzyme [1] = target: T2, hTPMT enzyme (Homo sapiens, UniProt P51580, Y240C); experiment: ELISA immunoassay for TPMT using purified anti-6-MMP IgG; assay type: biochemical; conditions: TPMT + 100 μM SAM, 37° C., 30 minutes
T2 construct: DNA fragment; first 13 codons of LacZ (vector-encoded leader of pGEM-3Zf(+)) (N); made in house; host or cells: E. coli JM109 (pTPMT)
T2 sequence (P51580 1-245 Y240C): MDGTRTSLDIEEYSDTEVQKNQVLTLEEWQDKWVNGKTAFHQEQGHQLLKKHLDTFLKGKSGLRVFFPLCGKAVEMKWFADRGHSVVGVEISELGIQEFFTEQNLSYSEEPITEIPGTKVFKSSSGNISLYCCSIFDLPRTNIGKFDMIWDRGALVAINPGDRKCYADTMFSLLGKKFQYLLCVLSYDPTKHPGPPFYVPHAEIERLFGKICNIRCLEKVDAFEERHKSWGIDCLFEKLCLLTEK
From the text: In order to determine whether TPMT enzyme could methylate 6-MP bound to BSA in reaction wells of a plastic ELISA plate, and if the anti-6-MMP antibody could detect the methylated 6-MMP reaction product, the following assay format was developed: [drawing 3] Schematic Representation of ELISA Assay for TPMT. Substrate BSA-6-mercaptopurine conjugate is coated onto the wells of plastic ELISA plates. In the presence of S-Adenosylmethionine (SAM), TPMT catalyses S-methylation of 6-MP to 6-methylmercaptopurine (6-MMP). Rabbit anti-6-MMP IgG binds to the covalently bound 6-MMP reaction product; and Protein A-Horseradish peroxidase (HRP) conjugate then binds to the rabbit IgG. Blue color develops in the presence of the HRP substrate, Tetramethylbenzidine. After acidification, the color changes to yellow; and the optical density at 450 nm is directly proportional to the amount of 6-MMP produced by enzyme-catalyzed TPMT methylation.
The wells of ‘Immulon B’ ELISA strips were coated with various concentrations of BSA-6MP conjugate and blocked as described above. After blocking solution was removed, the wells received 100 μl of Methylation Reaction Mix consisting of 1 mM Potassium Phosphate, 30 mM Tris-HCl, pH 8.0, lmM EDTA, 100 μM SAM and 1-4 μl of TPMT enzyme (˜6 units/μl). As a control, the wells received 100 μl of same reaction mix except no Mtase enzyme.
The wells were incubated at 37° C. for 30 minutes and were developed as described before. Absorbance was read on an Opsys MR ELISA plate reader (Dynex) at 450 nm. In this ELISA assay format, TPMT enzyme activity is detected as the amount of 6-MMP formed in situ: substrate 6-mercaptopurine is covalently bound to BSA which coats the wells of the plastic ELISA plate. Since anti-6-MMP IgG binds specifically to the methylated reaction product, 6-MMP, it is possible to measure TPMT activity using horseradish peroxidase (HRP) labeled Protein A (or HRP-conjugated goat anti-rabbit IgG). […]

[2] = Storage stability of recombinant TPMT; assay type: physicochemical; conditions: storage of 2 and 5 months at −20° C.
Description: The optimal reaction temperature for the hTPMT enzyme is 37° C. […] The relatively high activity of TPMT at ambient temperature facilitates immunoassays using anti-6-MMP antibody. After a storage of 2 and 5 months at −20° C., no change in TPMT enzyme activity was observed.

hTPMT enzyme [3] = target: T2, hTPMT enzyme; experiment: Temperature optimum of recombinant TPMT; assay type: biochemical
Description: Thawed cells (˜15g) were sonicated in (20 mM Tris-Cl, pH 7.5, 1 mM EDTA, 50 mM KC1, 10 mM β-mercaptoethanol) and centrifuged (8000 g for 15 minutes). The supernatant was loaded onto a Q-Sepharose column (Pharmacia, Piscataway, N.J.). […] After a storage of 2 and 5 months at −20° C., no change in TPMT enzyme activity was observed.

Molecule: OC[C@H]1O[C@@H](n2cnc3c(S)ncnc32)[C@H](O)[C@@H]1O [6-mercaptopurine riboside]
substrate quality for human TPMT (human TPMT): relatively good substrate

Absorbance at 450 nm (hTPMT enzyme [1]; wells coated with BSA:6-MP 10 μg/ml): 2.228 | Absorbance at 450 nm (hTPMT enzyme [1]; wells coated with BSA:6-MP 100 μg/ml): 2.440 | Absorbance at 450 nm (hTPMT enzyme [1]; wells coated with BSA:6-MP 1 mg/ml): 2.561
Molecule: BSA:6-MP: 6-MP (TPMT substrate) linked to BSA by periodate oxidation chemistry; coated onto ELISA wells

optimal reaction temperature (hTPMT enzyme [3]): 37 °C
B1: hTPMT enzyme: Recombinant human thiopurine methyltransferase expressed in E.coli JM109 (pTPMT), partially purified (protein, UniProt P51580 1-245, looked up)
Thiopurine S-methyltransferase: MDGTRTSLDIEEYSDTEVQKNQVLTLEEWQDKWVNGKTAFHQEQGHQLLKKHLDTFLKGKSGLRVFFPLCGKAVEMKWFADRGHSVVGVEISELGIQEFFTEQNLSYSEEPITEIPGTKVFKSSSGNISLYCCSIFDLPRTNIGKFDMIWDRGALVAINPGDRKCYADTMFSLLGKKFQYLLCVLSYDPTKHPGPPFYVPHAEIERLFGKICNIRCLEKVDAFEERHKSWGIDCLFEKLYLLTEK
modifications: recombinant, E. coli
notes: Recombinant human thiopurine methyltransferase expressed in E.coli JM109 (pTPMT), partially purified
change in TPMT enzyme activity after storage [2]: no change | enzyme activity at 23° C. relative to the optimum (hTPMT enzyme [3]; 23° C.): nearly as active
